Source: patent publication CN102875678A (WUXI PROGRAMMED ARTIFICIAL MOLECULAR EVOLUTION CO LTD, dated 2013)

Columns and labels:
[1] = target: 重组人CD20蛋白 (human) (UniProt P11836); experiment: Friguet method, full-length antibody and human CD20
[2] = target: 重组人CD20蛋白 (human) (UniProt P11836); experiment: Friguet method, Fab and human CD20 in solution, ELISA on immobilised human CD20
[3] = target: hCD20 on B cell lines (Ramos, DHL-4, Daudi, Raji) (human) (UniProt P11836); experiment: cell-based or functional assay
[4] = target: T1, 重组人CD20蛋白 (human, UniProt P11836 1-297, limits assumed); experiment: Friguet method, full-length antibody and human CD20
T1 construct: also called hCD20
T1 sequence (looked up): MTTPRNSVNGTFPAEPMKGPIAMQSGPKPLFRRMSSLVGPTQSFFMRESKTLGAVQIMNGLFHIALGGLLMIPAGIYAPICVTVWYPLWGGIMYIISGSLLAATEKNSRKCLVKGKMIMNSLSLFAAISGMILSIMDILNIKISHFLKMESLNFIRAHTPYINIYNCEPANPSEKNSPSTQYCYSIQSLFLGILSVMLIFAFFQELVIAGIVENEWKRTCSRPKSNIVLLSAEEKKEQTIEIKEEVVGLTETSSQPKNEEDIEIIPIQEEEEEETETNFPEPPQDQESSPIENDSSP

Molecule: C2B8 (即Rituxan), full length (antibody)
- Kd [1]: 3.51 nM

Molecule: C2B8 Fab
- Kd [2]: 1.83 nM

Molecule: 2F2 (即HuMax-CD20), full length (antibody)
- ADCC靶细胞裂解 (Raji细胞, MNC效应细胞, 51Cr释放) [3]: 35%
- CDC细胞裂解比例 (Daudi和Raji细胞, 10μg/ml抗体, 人血清) [3]: > 80%
- Kd [4]: 0.121 nM

B1: 全长8G3 (F8G3) (antibody)
chain 1: EVQLVESGGGLVQPGESLRLSCAGSGFTFNDYAMHWVRQMPGKGLEWVSTIYPW
chain 2: EIVLTQSPATLSLSPGERATLSCRASQFVGFYIHWYQQKPGQAPRLLIYAASERATGVPSRFSGSGSGTDFTLTISSLEPEDFAVYYCQQWLNNPFTFGQGTRLEII
- Kd [4]: 0.037 nM
